Data published in patent US20180155451A1 (published 2018).

T1: FcγRIIb (human, UniProt P31994 43-217)
T1 construct: extracellular domain; also called FcgRIIb; 2b
T1 sequence (looked up): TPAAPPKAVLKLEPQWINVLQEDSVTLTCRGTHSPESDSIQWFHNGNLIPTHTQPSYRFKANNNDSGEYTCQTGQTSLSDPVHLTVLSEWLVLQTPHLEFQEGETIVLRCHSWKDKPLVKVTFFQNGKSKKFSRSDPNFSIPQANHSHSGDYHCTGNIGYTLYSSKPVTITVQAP

B1: GpH7-A5/GpH7-B3 variant (L234_19Q)/GpL16-k0 (antibody, human IgG1, kappa)
heavy 1: not shown
heavy 2: not shown
light: DIVMTQSPLSLPVTPGEPASISCQASESLVHSNRNTYLHWYLQKPGQSPQLLIYKVSNRFSGVPDRFSGSGSGTDFTLKISRVEAEDVGVYYCSQNTHVPPTFGQGTKVEIERTVAAPSVFIFPPSDEQLKSGTASVVCLLNNFYPREAKVQWKVDNALQSGNSQESVTEQDSKDSTYSLSSTLTLSKADYEKHKVYACEVTHQGLSSPVTKSFNRGEC
notes: IgG1 heterodimer, mutation in the GpH7-B3 chain only; also called He Ab
B2: GpH7-A5/GpH7-B3 variant (P271_03V)/GpL16-k0 (antibody, human IgG1, kappa)
heavy 1: not shown
heavy 2: not shown
light: B1 light
notes: as for B1
B3: GpH7-A5/GpH7-B3 variant (L234_16H)/GpL16-k0 (antibody, human IgG1, kappa)
heavy 1: not shown
heavy 2: not shown
light: B1 light
notes: as for B1
B4: GpH7-A5/GpH7-B3 variant (V266_19Q)/GpL16-k0 (antibody, human IgG1, kappa)
heavy 1: not shown
heavy 2: not shown
light: B1 light
notes: as for B1
B5: GpH7-A5/GpH7-B3 variant (L234_01G)/GpL16-k0 (antibody, human IgG1, kappa)
heavy 1: not shown
heavy 2: not shown
light: B1 light
notes: as for B1
B6: GpH7-A5/GpH7-B3 variant (L235_19Q)/GpL16-k0 (antibody, human IgG1, kappa)
heavy 1: not shown
heavy 2: not shown
light: B1 light
notes: as for B1
B7: GpH7-A5/GpH7-B3 variant (S239_19Q)/GpL16-k0 (antibody, human IgG1, kappa)
heavy 1: not shown
heavy 2: not shown
light: B1 light
notes: as for B1
B8: GpH7-A5/GpH7-B3 variant (L235_14T)/GpL16-k0 (antibody, human IgG1, kappa)
heavy 1: not shown
heavy 2: not shown
light: B1 light
notes: as for B1
B9: GpH7-A5/GpH7-B3 variant (L235_13S)/GpL16-k0 (antibody, human IgG1, kappa)
heavy 1: not shown
heavy 2: not shown
light: B1 light
notes: as for B1
B10: GpH7-A5/GpH7-B3 variant (G236_19Q)/GpL16-k0 (antibody, human IgG1, kappa)
heavy 1: not shown
heavy 2: not shown
light: B1 light
notes: as for B1
B11: GpH7-A5/GpH7-B3 variant (S239_14T)/GpL16-k0 (antibody, human IgG1, kappa)
heavy 1: not shown
heavy 2: not shown
light: B1 light
notes: as for B1
B12: GpH7-A5/GpH7-B3 variant (L235_02A)/GpL16-k0 (antibody, human IgG1, kappa)
heavy 1: not shown
heavy 2: not shown
light: B1 light
notes: as for B1
B13: GpH7-A5/GpH7-B3 variant (L234_11K)/GpL16-k0 (antibody, human IgG1, kappa)
heavy 1: not shown
heavy 2: not shown
light: B1 light
notes: as for B1
B14: GpH7-A5/GpH7-B3 variant (H268_04F)/GpL16-k0 (antibody, human IgG1, kappa)
heavy 1: not shown
heavy 2: not shown
light: B1 light
notes: as for B1
B15: GpH7-A5/GpH7-B3 variant (G237_05P)/GpL16-k0 (antibody, human IgG1, kappa)
heavy 1: not shown
heavy 2: not shown
light: B1 light
notes: as for B1
B16: GpH7-A5/GpH7-B3 variant (L235_06M)/GpL16-k0 (antibody, human IgG1, kappa)
heavy 1: not shown
heavy 2: not shown
light: B1 light
notes: as for B1
B17: GpH7-A5/GpH7-B3 variant (S267_16H)/GpL16-k0 (antibody, human IgG1, kappa)
heavy 1: not shown
heavy 2: not shown
light: B1 light
notes: as for B1
B18: GpH7-A5/GpH7-B3 variant (L234_05P)/GpL16-k0 (antibody, human IgG1, kappa)
heavy 1: not shown
heavy 2: not shown
light: B1 light
notes: as for B1
B19: GpH7-A5/GpH7-B3 variant (L234_13S)/GpL16-k0 (antibody, human IgG1, kappa)
heavy 1: not shown
heavy 2: not shown
light: B1 light
notes: as for B1
B20: GpH7-A5/GpH7-B3 variant (L234_06M)/GpL16-k0 (antibody, human IgG1, kappa)
heavy 1: not shown
heavy 2: not shown
light: B1 light
notes: as for B1
B21: GpH7-A5/GpH7-B3 variant (L234_14T)/GpL16-k0 (antibody, human IgG1, kappa)
heavy 1: not shown
heavy 2: not shown
light: B1 light
notes: as for B1
B22: GpH7-A5/GpH7-B3 variant (G236_14T)/GpL16-k0 (antibody, human IgG1, kappa)
heavy 1: not shown
heavy 2: not shown
light: B1 light
notes: as for B1
B23: GpH7-A5/GpH7-B3 variant (P271_02A)/GpL16-k0 (antibody, human IgG1, kappa)
heavy 1: not shown
heavy 2: not shown
light: B1 light
notes: as for B1
B24: GpH7-A5/GpH7-B3 variant (G236_16H)/GpL16-k0 (antibody, human IgG1, kappa)
heavy 1: not shown
heavy 2: not shown
light: B1 light
notes: as for B1
B25: GpH7-A5/GpH7-B3 variant (H268_07I)/GpL16-k0 (antibody, human IgG1, kappa)
heavy 1: not shown
heavy 2: not shown
light: B1 light
notes: as for B1

target: T1, FcγRIIb; assay: SPR, captured antibody; relative to GpH7-A5/GpH7-B3/GpL16-k0

B1 was tested. Which He/Con_2b did it give?
The He/Con_2b was 60.3 relative, HeCon Ab = 100.

With B2 as the binder, how does the He/Con_2b read?
The He/Con_2b was 74.8 relative, HeCon Ab = 100.

For B3, which He/Con_2b is on record?
Its He/Con_2b is 59.4 relative, HeCon Ab = 100.

With B4 as the binder, how does the He/Con_2b read?
The He/Con_2b was 89.2 relative, HeCon Ab = 100.

How did the He/Con_2b turn out when B5 was run?
The He/Con_2b was 50.7 relative, HeCon Ab = 100.

For B6, which He/Con_2b is on record?
Its He/Con_2b is 42.6 relative, HeCon Ab = 100.

For B7, which He/Con_2b is on record?
The He/Con_2b was 86.1 relative, HeCon Ab = 100.

With B8 as the binder, how does the He/Con_2b read?
The He/Con_2b was 46.8 relative, HeCon Ab = 100.

Which He/Con_2b does the source give for B9 here?
The He/Con_2b was 48.2 relative, HeCon Ab = 100.

B10 was tested. Which He/Con_2b did it give?
The He/Con_2b was 46.6 relative, HeCon Ab = 100.

B11 was tested. Which He/Con_2b did it give?
Its He/Con_2b is 97.3 relative, HeCon Ab = 100.

B12 was tested. Which He/Con_2b did it give?
The He/Con_2b was 63 relative, HeCon Ab = 100.

For B13, which He/Con_2b is on record?
Its He/Con_2b is 16.2 relative, HeCon Ab = 100.

B14 was tested. Which He/Con_2b did it give?
Its He/Con_2b is 89.6 relative, HeCon Ab = 100.

Which He/Con_2b does the source give for B15 here?
The He/Con_2b was 24.6 relative, HeCon Ab = 100.

B16 was tested. Which He/Con_2b did it give?
Its He/Con_2b is 81 relative, HeCon Ab = 100.

How did the He/Con_2b turn out when B17 was run?
Its He/Con_2b is 65.9 relative, HeCon Ab = 100.

How did the He/Con_2b turn out when B18 was run?
The He/Con_2b was 72.9 relative, HeCon Ab = 100.

B19 was tested. Which He/Con_2b did it give?
The He/Con_2b was 59.3 relative, HeCon Ab = 100.

Which He/Con_2b does the source give for B20 here?
Its He/Con_2b is 78.5 relative, HeCon Ab = 100.

With B21 as the binder, how does the He/Con_2b read?
Its He/Con_2b is 62.5 relative, HeCon Ab = 100.

Which He/Con_2b does the source give for B22 here?
The He/Con_2b was 57.8 relative, HeCon Ab = 100.

B23 was tested. Which He/Con_2b did it give?
Its He/Con_2b is 88 relative, HeCon Ab = 100.

Which He/Con_2b does the source give for B24 here?
The He/Con_2b was 27.9 relative, HeCon Ab = 100.

For B25, which He/Con_2b is on record?
The He/Con_2b was 88.9 relative, HeCon Ab = 100.

target: T2, FcγRIa (human, UniProt P12314 16-292); assay: as above
T2 construct: extracellular domain; also called FcgRI; 1a
T2 sequence (P12314 16-292): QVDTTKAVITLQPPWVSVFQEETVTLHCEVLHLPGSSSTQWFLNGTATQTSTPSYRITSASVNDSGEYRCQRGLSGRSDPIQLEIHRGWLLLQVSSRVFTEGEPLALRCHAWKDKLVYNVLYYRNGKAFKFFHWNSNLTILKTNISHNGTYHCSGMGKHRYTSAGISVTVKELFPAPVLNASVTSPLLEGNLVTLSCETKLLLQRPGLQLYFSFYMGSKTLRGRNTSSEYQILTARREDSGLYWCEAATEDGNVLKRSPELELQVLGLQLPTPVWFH

For B1, which He/Con_1a is on record?
The He/Con_1a was 95.7 relative, HeCon Ab = 100.

B2 was tested. Which He/Con_1a did it give?
Its He/Con_1a is 102 relative, HeCon Ab = 100.

Which He/Con_1a does the source give for B3 here?
Its He/Con_1a is 94 relative, HeCon Ab = 100.

For B4, which He/Con_1a is on record?
Its He/Con_1a is 100 relative, HeCon Ab = 100.

B5 was tested. Which He/Con_1a did it give?
Its He/Con_1a is 96.1 relative, HeCon Ab = 100.

How did the He/Con_1a turn out when B6 was run?
Its He/Con_1a is 94 relative, HeCon Ab = 100.

Which He/Con_1a does the source give for B7 here?
The He/Con_1a was 101 relative, HeCon Ab = 100.

With B8 as the binder, how does the He/Con_1a read?
The He/Con_1a was 88.7 relative, HeCon Ab = 100.

For B9, which He/Con_1a is on record?
The He/Con_1a was 90.5 relative, HeCon Ab = 100.

With B10 as the binder, how does the He/Con_1a read?
Its He/Con_1a is 92.1 relative, HeCon Ab = 100.

With B11 as the binder, how does the He/Con_1a read?
The He/Con_1a was 101 relative, HeCon Ab = 100.

B12 was tested. Which He/Con_1a did it give?
The He/Con_1a was 92.2 relative, HeCon Ab = 100.

For B13, which He/Con_1a is on record?
Its He/Con_1a is 91.8 relative, HeCon Ab = 100.

With B14 as the binder, how does the He/Con_1a read?
The He/Con_1a was 106 relative, HeCon Ab = 100.

Which He/Con_1a does the source give for B15 here?
The He/Con_1a was 44.5 relative, HeCon Ab = 100.

Which He/Con_1a does the source give for B16 here?
Its He/Con_1a is 98 relative, HeCon Ab = 100.

B17 was tested. Which He/Con_1a did it give?
Its He/Con_1a is 100 relative, HeCon Ab = 100.

B18 was tested. Which He/Con_1a did it give?
The He/Con_1a was 99.9 relative, HeCon Ab = 100.

B19 was tested. Which He/Con_1a did it give?
Its He/Con_1a is 96.9 relative, HeCon Ab = 100.

With B20 as the binder, how does the He/Con_1a read?
Its He/Con_1a is 104 relative, HeCon Ab = 100.

For B21, which He/Con_1a is on record?
The He/Con_1a was 98.6 relative, HeCon Ab = 100.

For B22, which He/Con_1a is on record?
Its He/Con_1a is 92.2 relative, HeCon Ab = 100.

Which He/Con_1a does the source give for B23 here?
Its He/Con_1a is 104 relative, HeCon Ab = 100.

How did the He/Con_1a turn out when B24 was run?
Its He/Con_1a is 83.5 relative, HeCon Ab = 100.

How did the He/Con_1a turn out when B25 was run?
Its He/Con_1a is 108 relative, HeCon Ab = 100.
